Binding result and EC50 data for 2 molecules are collected here from US20150346208A1 (SPRING BIOSCIENCE, published 2015).

The term EC50 denotes the midpoint of the concentration-response curve. A higher EC50 goes with weaker potency.

In test [1] the target is T1, human PD-L1 (Programmed death ligand-1) (human, UniProt Q9NZQ7 19-290).
T1 construct: whole, on cells; Endogenous protein; For IHC it was in formalin-fixed, paraffin-embedded tissue sections; for the Western blot it was in SDS-PAGE-fractionated cell lysates (45-55 kDa band); also called B7-H1; PDCD1L1
In words: IHC on FFPE placenta, 0.11-28 µg/ml.

Test [2] has as its target T2, peptide immunogen CGIQDTNSKKQSDTHLEET (human PD-L1 aa 272-290) (human).
T2 construct: Synthetic peptide, immobilized in the ELISA; also called immobilized peptide immunogen; 19-amino acid peptide
T2 peptide: CGIQDTNSKKQSDTHLEET
In words: ELISA, immobilized peptide immunogen (human PD-L1 aa272-290). Here is the method: ELISA studies were performed with the SP263 antibody to evaluate binding to the immobilized peptide immunogen (human PD-L1 aa272-290).
For orientation: An ELISA detects its analyte on a solid surface through an enzyme-linked reagent.

Test [3] deals with T1, human PD-L1 (Programmed death ligand-1). In words: IHC on FFPE placenta, 0.9 µg/ml. Here is the method:
Rabbit anti-human PD-L1 monoclonal antibodies SP263, J45H2L4 and J27H6L4 were applied onto formalin-fixed paraffin embedded (FFPE) tissue samples to assess the staining patterns of these antibodies. Tissue samples include placenta (positive control), stomach (negative control) and colon. Immunohistochemistry was performed on BenchMark Ultra (Ventana Medical System) using StdCC1 cell conditioning and standard Opt iView DAB detection protocol. Each primary antibody was incubated at 0.9 μg/ml for 16 min.

T1 sequence (Q9NZQ7 19-290): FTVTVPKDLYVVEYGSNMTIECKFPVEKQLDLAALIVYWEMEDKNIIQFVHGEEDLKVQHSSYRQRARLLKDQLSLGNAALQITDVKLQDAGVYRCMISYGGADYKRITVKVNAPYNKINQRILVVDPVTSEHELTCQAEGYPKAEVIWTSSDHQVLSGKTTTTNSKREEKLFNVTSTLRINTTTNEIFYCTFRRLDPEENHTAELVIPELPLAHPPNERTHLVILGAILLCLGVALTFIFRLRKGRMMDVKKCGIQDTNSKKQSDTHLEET

B1: SP263 rabbit anti-human PD-L1 monoclonal antibody (antibody, V domains shown)
VH: QSLEESGGRLVTPGTPLTLTCTASGFSLSNHAISWVRQAPGKGLEWIGTINSDTHTYYATWPKGRFTISKTSSTTVDLKMTSPTTEDTATYFCARRIFSSSNIWGPGTLVTVSS
VL: AIVMTQTSSPVSAVVGGTVAINCQASQSIYNNNWLSWFQQKPGQPPKLLIYLASTLASGVPSRFKGSGSGTQFTLTISDVVCDDAATYYCIGGESSNNDGIAFGGGTEVVVK
notes: the rabbit constant regions are not; also called SP263 anti-PD-L1 antibody
In the case of B1, the binding result in test [1] was “binds”. The molecule also showed an EC50 in test [2] of 0.015 nM.

B2: J45H2L4 rabbit anti-human PD-L1 monoclonal antibody (antibody, V domains shown)
VH: QSLEESGGRLVTPGTPLTLTCTASGFSLSSNAISWVRQAPGKGLEWIGTINSDSHIYSATWAKGRFTISKTSTAVDLKMTSPTTEDTATYFCAGRLFSSTNIWGPGTLVTVSS
VL: VMTQTSSPVSAAVGGTVTINCQASQSIYKDNWLSWFQQKPGQPPKLLIYLASTLASGVPSRFKGSGSGTQFTLTISDVVCDDAATYYCLGGESSSDDGIAFGGGTEVVVK
notes: the rabbit constant regions are not; also called anti-PD-L1 antibody clone J45H2L4
For B2, the binding result in test [3] is reported as “binds”.
